T1: recombinant membrane-bound human FAP solubilised in detergent extracts of transfected cells (293FAP 1/2, … (human, UniProt Q12884 1-760))
T1 construct: Same protein as m5, but isolated from the cells; also called recombinant human FAP
T1 sequence (looked up): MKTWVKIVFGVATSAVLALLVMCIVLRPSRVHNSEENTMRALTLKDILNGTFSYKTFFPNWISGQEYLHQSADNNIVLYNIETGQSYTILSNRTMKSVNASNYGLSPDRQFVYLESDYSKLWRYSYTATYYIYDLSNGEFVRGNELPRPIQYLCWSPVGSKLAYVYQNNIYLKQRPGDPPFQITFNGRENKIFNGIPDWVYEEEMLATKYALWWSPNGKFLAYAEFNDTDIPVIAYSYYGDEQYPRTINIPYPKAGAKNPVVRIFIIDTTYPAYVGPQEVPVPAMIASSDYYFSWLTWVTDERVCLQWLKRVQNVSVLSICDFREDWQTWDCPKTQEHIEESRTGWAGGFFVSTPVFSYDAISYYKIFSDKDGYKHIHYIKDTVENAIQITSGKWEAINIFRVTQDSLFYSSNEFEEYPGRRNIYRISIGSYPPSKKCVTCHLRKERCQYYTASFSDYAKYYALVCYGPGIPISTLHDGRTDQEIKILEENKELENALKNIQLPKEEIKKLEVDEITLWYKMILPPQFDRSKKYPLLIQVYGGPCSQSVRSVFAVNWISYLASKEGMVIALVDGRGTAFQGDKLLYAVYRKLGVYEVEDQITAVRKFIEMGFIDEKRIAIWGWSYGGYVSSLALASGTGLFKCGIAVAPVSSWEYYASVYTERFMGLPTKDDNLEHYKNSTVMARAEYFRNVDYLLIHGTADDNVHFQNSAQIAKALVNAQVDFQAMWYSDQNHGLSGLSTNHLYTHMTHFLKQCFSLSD


Tests used:
[1] = biological target: human fibroblast activation protein alpha (FAP) on the cell surface (human) (UniProt Q12884); test: flow cytometry, MF-SH cells with endogenous FAP, antibody at 4000 ng/ml
[2] = biological target: human fibroblast activation protein alpha (FAP) on the cell surface (human) (UniProt Q12884); test: flow cytometry, HT-1080FAP clone 33 cells, antibody at 0.8 ng/ml, FITC anti-human IgG
[3] = biological target: human fibroblast activation protein alpha (FAP) on the cell surface (human) (UniProt Q12884); test: flow cytometry, HT-1080FAP clone 33 cells, antibody at 4.0 ng/ml, FITC anti-human IgG
[4] = biological target: human fibroblast activation protein alpha (FAP) on the cell surface (human) (UniProt Q12884); test: flow cytometry, HT-1080FAP clone 33 cells, antibody at 20.0 ng/ml, FITC anti-human IgG
[5] = biological target: human fibroblast activation protein alpha (FAP) on the cell surface (human) (UniProt Q12884); test: flow cytometry, HT-1080FAP clone 33 cells, antibody at 100.0 ng/ml, FITC anti-human IgG
[6] = biological target: human fibroblast activation protein alpha (FAP) on the cell surface (human) (UniProt Q12884); test: flow cytometry, HT-1080FAP clone 33 cells, antibody at 500.0 ng/ml, FITC anti-human IgG
[7] = biological target: human fibroblast activation protein alpha (FAP) on the cell surface (human) (UniProt Q12884); test: flow cytometry, HT-1080FAP clone 33 cells, biotinylated antibody at 1.6 ng/ml, streptavidin-FITC
[8] = biological target: human fibroblast activation protein alpha (FAP) on the cell surface (human) (UniProt Q12884); test: flow cytometry, HT-1080FAP clone 33 cells, biotinylated antibody at 8.0 ng/ml, streptavidin-FITC
[9] = biological target: human fibroblast activation protein alpha (FAP) on the cell surface (human) (UniProt Q12884); test: flow cytometry, HT-1080FAP clone 33 cells, biotinylated antibody at 40.0 ng/ml, streptavidin-FITC
[10] = biological target: human fibroblast activation protein alpha (FAP) on the cell surface (human) (UniProt Q12884); test: flow cytometry, HT-1080FAP clone 33 cells, biotinylated antibody at 200.0 ng/ml, streptavidin-FITC
[11] = biological target: human fibroblast activation protein alpha (FAP) on the cell surface (human) (UniProt Q12884); test: flow cytometry, HT-1080FAP clone 33 cells, biotinylated antibody at 1,000.0 ng/ml, streptavidin-FITC
[12] = biological target: human fibroblast activation protein alpha (FAP) on the cell surface (human) (UniProt Q12884); test: flow cytometry, HT-1080FAP clone 33 cells, biotinylated antibody at 5,000.0 ng/ml, streptavidin-FITC
[13] = biological target: human fibroblast activation protein alpha (FAP) on the cell surface (human) (UniProt Q12884); test: competition flow cytometry, HT-1080FAP clone 33 cells, unlabelled competitor at 1.00 µg/ml against 1 µg/ml biotinylated cF19; signal of bound biotinylated cF19
[14] = biological target: human fibroblast activation protein alpha (FAP) on the cell surface (human) (UniProt Q12884); test: competition flow cytometry, HT-1080FAP clone 33 cells, unlabelled competitor at 3.16 µg/ml against 1 µg/ml biotinylated cF19; signal of bound biotinylated cF19
[15] = biological target: human fibroblast activation protein alpha (FAP) on the cell surface (human) (UniProt Q12884); test: competition flow cytometry, HT-1080FAP clone 33 cells, unlabelled competitor at 10.00 µg/ml against 1 µg/ml biotinylated cF19; signal of bound biotinylated cF19
[16] = biological target: human fibroblast activation protein alpha (FAP) on the cell surface (human) (UniProt Q12884); test: competition flow cytometry, HT-1080FAP clone 33 cells, unlabelled competitor at 31.66 µg/ml against 1 µg/ml biotinylated cF19; signal of bound biotinylated cF19
[17] = biological target: T1, recombinant membrane-bound human FAP …; test: sandwich ELISA, detergent extract of 293FAP 1/2 cells on cF19-coated plates, HRP-streptavidin
[18] = biological target: T1, recombinant membrane-bound human FAP …; test: sandwich ELISA, cF19 as capture antibody
[19] = biological target: human fibroblast activation protein alpha (FAP) on the cell surface (human) (UniProt Q12884); test: flow cytometry, MF-SH cells with endogenous FAP, antibody at 500 ng/ml
[20] = biological target: human fibroblast activation protein alpha (FAP) on the cell surface (human) (UniProt Q12884); test: flow cytometry, MF-SH cells with endogenous FAP, antibody at 1000 ng/ml
[21] = biological target: human fibroblast activation protein alpha (FAP) on the cell surface (human) (UniProt Q12884); test: flow cytometry, MF-SH cells with endogenous FAP, antibody at 2000 ng/ml
[22] = biological target: human fibroblast activation protein alpha (FAP) on the cell surface (human) (UniProt Q12884); test: flow cytometry, HT-1080FAP clone 33 cells, 1 µg/ml biotinylated cF19 without competitor (0.00 µg/ml)

| Mean fluorescence intensity [1] | Mean fluorescence intensity [2] | Mean fluorescence intensity [3] | Mean fluorescence intensity [4] | Mean fluorescence intensity [5] | Mean fluorescence intensity [6] | Mean fluorescence intensity [7] | Mean fluorescence intensity [8] | Mean fluorescence intensity [9] | Mean fluorescence intensity [10] | Mean fluorescence intensity [11] | Mean fluorescence intensity [12] | Mean fluorescence concentration [13] | Mean fluorescence concentration [14] | Mean fluorescence concentration [15] | Mean fluorescence concentration [16] | Molecule | also measured |
| --- | --- | --- | --- | --- | --- | --- | --- | --- | --- | --- | --- | --- | --- | --- | --- | --- | --- |
| 0.6 | 0.12 | 0.12 | 0.12 | 0.12 | 0.12 | 0.3 | 0.2 | 0.2 | 0.2 | 0.2 | 0.2 | 9 | 11.3 | 9.8 | 10.3 | hIgG1 (human immunoglobulin, IgG1 subclass), negative control (antibody) | – |
| – | – | – | – | – | – | – | – | – | – | – | – | – | – | – | – | LAHC (reshaped human anti-human FAP monoclonal antibody: F19 human reshaped light chain variable region version A with heavy chain variable region version C, … (antibody, V domains shown, The name joins light version A (LA) and heavy version C (HC); also called biotinylated LAHC; BIBH 1) VH: QVQLVQSGAEVKKPGASVKVSCKTSRYTFTEYTIHWVRQAPGQRLEWIGGINPNNGIPNYNQKFKGRVTITVDTSASTAYMELSSLRSEDTAVYYCARRRIAYGYDEGHAMDYWGQGTLVTVSS VL: DIVMTQSPDSLAVSLGERATINCKSSQSLLYSRNQKNYLAWYQQKPGQPPKLLIFWASTRESGVPDRFSGSGFGTDFTLTISSLQAEDVAVYYCQQYFSYPLTFGQGTKVEIKR | binding result [17]: binds |
| 3.6 | 0.14 | 0.17 | 0.43 | 1.63 | 6.65 | 0.3 | 0.5 | 1.3 | 4.5 | 18.1 | 36.5 | 7.5 | 4.8 | 1.3 | 1.2 | chimeric F19 antibody (cF19), mouse F19 variable regions joined to human kappa and gamma-1 constant regions (antibody, human IgG1, kappa, V domains shown, Biotinylated in some assays; also called biotinylated cF19) VH: VQLQQSGPELVKPGASVKMSCKTSRYTFTEYTIHWVRQSHGKSLEWIGGINPNNGIPNYNQKFKGRATLTVGKSSSTAYMELRSLTSEDSAVYFCARRRIAYGYDEGHAMDYWGQGTSVTVSS VL: DIVMSQSPSSLAVSVGEKVTMSCKSSQSLLYSRNQKNYLAWFQQKPGQSPKLLIFWASTRESGVPDRFTGSGFGTDFNLTISSVQAEDLAVYDCQQYFSYPLTFGAGTKLELKR | binding result [18]: binds; Mean fluorescence intensity [19]: 1.8; Mean fluorescence intensity [20]: 2.4; Mean fluorescence intensity [21]: 3.3; Mean fluorescence concentration [22]: 11.2 |

Source: patent publication EP1098979B1 (Boehringer Ingelheim International GmbH, dated 2007)
